# Data as given in paper PMC3242763.
# Target: Prostate specific antigen used in the inhibition kinetics (human) (UniProt P07288)
# Chain of UniProt P07288 (P07288 25-261): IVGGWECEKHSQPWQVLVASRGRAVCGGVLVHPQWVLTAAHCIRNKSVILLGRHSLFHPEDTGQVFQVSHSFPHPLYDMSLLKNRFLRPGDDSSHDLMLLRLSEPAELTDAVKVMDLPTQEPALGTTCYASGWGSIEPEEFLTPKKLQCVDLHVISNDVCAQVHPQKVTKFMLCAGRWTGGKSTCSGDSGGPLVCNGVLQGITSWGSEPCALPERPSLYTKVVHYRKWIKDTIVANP
row,"second-order rate constant for PSA inhibition (discontinuous assay of residual PSA activity on a chromogenic substrate, 350 nM PSA, 10-fold excess of PCI, 25°C, pH 7.4)",Molecule
1,5.8 M^−1s^−1,"Neuraminic acid free, NH2-terminally cleaved protein C inhibitor from human blood plasma (natural protein)"
2,4.1 M^−1s^−1,Protein C inhibitor from human blood plasma lacking the six NH2-terminal amino acids (natural protein)
3,5.2 M^−1s^−1,"Neuraminic acid free full-length protein C inhibitor from human blood plasma (natural protein, N-glycans at Asn-230, Asn-243 and Asn-319, sialic acids removed with neuraminidase) EMKKRVEDLHVGATVAPSSRRDFTFDLYRALASAAPSQSIFFSPVSISMSLAMLSLGAGSSTKMQILEGLGLNLQKSSEKELHRGFQQLLQELNQPRDGFQLSLGNALFTDLVVDLQDTFVSAMKTLYLADTFPTNFRDSAGAMKQINDYVAKQTKGKIVDLLKNLDSNAVVIMVNYIFFKAKWETSFNHKGTQEQDFYVTSETVVRVPMMSREDQYHYLLDRNLSCRVVGVPYQGNATALFILPSEGKMQQVENGLSEKTLRKWLKMFKKRQLELYLPKFSIEGSYQLEKVLPSLGISNVFTSHADLSGISNHSNIQVSEMVHKAVVEVDESGTRAAAATGTIFTFRSARLNSQRLVFNRPFLMFIVDNNILFLGKVNRP"

# The remaining lines, values behind:
row,Molecule,"second-order rate constant for PSA inhibition (discontinuous assay of residual PSA activity on a chromogenic substrate, 350 nM PSA, 10-fold excess of PCI, 25°C, pH 7.4)"
1,PNGase F-treated protein C inhibitor from human blood plasma lacking the six NH2-terminal amino acids (natural protein),29 M^−1s^−1
2,"Natural full-length protein C inhibitor from human blood plasma (natural protein, N-glycans at Asn-230, Asn-243 and Asn-319) EMKKRVEDLHVGATVAPSSRRDFTFDLYRALASAAPSQSIFFSPVSISMSLAMLSLGAGSSTKMQILEGLGLNLQKSSEKELHRGFQQLLQELNQPRDGFQLSLGNALFTDLVVDLQDTFVSAMKTLYLADTFPTNFRDSAGAMKQINDYVAKQTKGKIVDLLKNLDSNAVVIMVNYIFFKAKWETSFNHKGTQEQDFYVTSETVVRVPMMSREDQYHYLLDRNLSCRVVGVPYQGNATALFILPSEGKMQQVENGLSEKTLRKWLKMFKKRQLELYLPKFSIEGSYQLEKVLPSLGISNVFTSHADLSGISNHSNIQVSEMVHKAVVEVDESGTRAAAATGTIFTFRSARLNSQRLVFNRPFLMFIVDNNILFLGKVNRP",4.3 M^−1s^−1
3,"PNGase F-treated full-length protein C inhibitor from human blood plasma (natural protein, N-glycans removed with PNGase F) EMKKRVEDLHVGATVAPSSRRDFTFDLYRALASAAPSQSIFFSPVSISMSLAMLSLGAGSSTKMQILEGLGLNLQKSSEKELHRGFQQLLQELNQPRDGFQLSLGNALFTDLVVDLQDTFVSAMKTLYLADTFPTNFRDSAGAMKQINDYVAKQTKGKIVDLLKNLDSNAVVIMVNYIFFKAKWETSFNHKGTQEQDFYVTSETVVRVPMMSREDQYHYLLDRNLSCRVVGVPYQGNATALFILPSEGKMQQVENGLSEKTLRKWLKMFKKRQLELYLPKFSIEGSYQLEKVLPSLGISNVFTSHADLSGISNHSNIQVSEMVHKAVVEVDESGTRAAAATGTIFTFRSARLNSQRLVFNRPFLMFIVDNNILFLGKVNRP",4.8 M^−1s^−1
